This note sets out measurements from patent publication US20240368668.

Series [1] concerns the target Q68SA9.
Series [2] concerns the target T1, purified recombinant human HA-tagged EFEMP1/Fibulin-3 (R&D, 8416-FB), Q12805.
T1 chain: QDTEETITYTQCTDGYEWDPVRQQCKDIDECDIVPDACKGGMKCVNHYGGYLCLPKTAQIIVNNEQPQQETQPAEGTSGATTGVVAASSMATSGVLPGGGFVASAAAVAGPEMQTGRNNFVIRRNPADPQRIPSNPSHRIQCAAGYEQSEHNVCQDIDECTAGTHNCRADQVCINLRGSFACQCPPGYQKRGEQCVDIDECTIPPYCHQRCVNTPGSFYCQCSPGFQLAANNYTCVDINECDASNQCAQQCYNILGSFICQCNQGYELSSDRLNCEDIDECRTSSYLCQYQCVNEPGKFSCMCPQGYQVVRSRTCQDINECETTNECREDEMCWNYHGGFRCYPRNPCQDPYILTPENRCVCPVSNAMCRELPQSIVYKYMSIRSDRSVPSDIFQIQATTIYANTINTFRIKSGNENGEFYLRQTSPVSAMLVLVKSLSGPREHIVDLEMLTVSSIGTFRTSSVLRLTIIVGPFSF

B1: purified full-length mouse ADAMTS7 S3A WT 3xFlag (protein)
chain: SVAKEKWVETLVVADSKMVEYHGQPQVESYVLTIMNMVAGLFHDPSIGNPIHISIVRLIILEDEEKDLKITHHAEETLKNFCRWQKNINIKGDDHPQHHDTAILLTRKDLCASMNQPCETLGLSHVSGLCHPQLSCSVSEDTGMPLAFTVAHELGHSFGIQHDGTGNDCESIGKRPFIMSPQLLYDRGIPLTWSRCSREYITRFLDRGWGLCLDDRPSKDVIALPSVLPGVLYDVNHQCRLQYGSHSAYCEDMDDVCHTLWCSVGTTCHSKLDAAVDGTSCGKNKWCLKGECVPEGFQPEAVDGGWSGWSAWSDCSRSCGVGVRSSERQCTQPVPKNRGKYCVGERKRSQLCNLPACPPDRPSFRHTQCSQFDGMLYKGKLHKWVPVPNDDNPCELHCRPSNSSNTEKLRDAVVDGTPCYQSRISRDICLNGICKNVGCDFVIDSGAEEDRCGVCRGDGSTCQTVSRTFKETEGQGYVDIGLIPAGAREILIEEVAEAANFLALRSEDPDKYFLNGGWTIQWNGDYRVAGTTFTYARKGNWENLTSPGPTSEPVWIQLLFQEKNPGVHYQYTIQRDSHDQVRPPEFSWHYGPWSKCTVTCGTGVQRQSLYCMERQAGVVAEEYCNTLNRPDERQRKCSEEPCPPRWWAGEWQPCSRSCGPEGLSRRAVFCIRSMGLDEQRALELSACEHLPRPLAETPCNRHVICPSTWGVGNWSQCSVTCGAGIRQRSVLCINNTDVPCDEAERPITETFCFLQPCQYPMYIVDTGASGSGSSSPELFNEVDFIPNQLAPRPSPASSPKPVSISNAIDEEELDPPGPVFVDDFYYDYNFINFHEDLSYGSFEEPHPDLVDNGGWTAPPHIRPTESPSDTPVPTAGALGAEAEDIQGSWSPSPLLSEASYSPPGLEQTSINPLANFLTEEDTPMGAPELGFPSLPWPPASVDDMMTPVGPGNPDELLVKEDEQSPPSTPWSDRNKLSTDGNPLGHTSPALPQSPIPTQPSPPSISPTQASPSPDVVEVSTGWNAAWDPVLEADLKPGHGELPSTVEVASPPLLPMATVPGIWGRDSPLEPGTPTFSSPELSSQHLKTLTMPGTLLLTVPTDLRSPGPSGQPQTPNLEGTQSPGLLPTPARETQTNSSKDPEVQPLQPSLEEDGDPADPLPARNASWQVGNWSQCSTTCGLGAIWRLVSCSSGNDEDCTLASRPQPARHCHLRPCAAWRTGNWSKCSRNCGGGSSTRDVQCVDTRDLRPLRPFHCQPGPTKPPNRQLCGTQPCLPWYTSSWRECSEACGGGEQQRLVTCPEPGLCEESLRPNNSRPCNTHPCTQWVVGPWGQCSAPCGGGVQRRLVRCVNTQTGLAEEDSDLCSHEAWPESSRPCATEDCELVEPPRCERDRLSFNFCETLRLLGRCQLPTIRAQCCRSCPPLSRGVPSRGHQRVARR
As to B1, the “auto-cleavage, peptide sequencing of the purified protein” value in series [1] is given as “Peptide sequencing (Tufts University Core Facility) of the lower band or the total purified WT S3A protein identified a potential auto-cleavage site at F1062 (SYGS|FEEP)”. Also, the “in vitro cleavage, 4 hours at 37 C, western blot” value in series [2] was “Full-length HA-EFEMP1 was detected at the expected position and a lower band was detected matching the predicted HA tagged amino terminus after cleavage by ADAMTS7 in the atypical first EGF domain”.
